Measured values published in the supplement of paper PMC12458215.
± gives the uncertainty stated by the source.

Tested on: HEK293T
Experiment: plasma membrane surface immunostaining intensity (anti-HA, deep receptor scanning) (arbitrary fluorescence units); higher = higher plasma membrane expression

Row | Sequence | plasma membrane surface immunostaining intensity (GPCR class: A (Olfactory)) | also measured
1 | MGMEGLLQNSTNFVLTGLITHPAFPGLLFAIVFSIFVVAITANLVMILLIHMDSRLHTPMYFLLSQLSIMDTIYICITVPKMLQDLLSKDKTISFLGCAVQIFLYLTLIGGEFFLLGLMAYDRYVAVCNPLRYPLLMNRRVCLFMVVGSWVGGSLDGFMLTPVTMSFPFCRSREINHFFCEIPAVLKLSCTDTSLYETLMYACCVLMLLIPLSVISVSYTHILLTVHRMNSAEGRRKAFATCSSHIMVVSVFYGAAFYTNVLPHSYHTPEKDKVVSAFYTILTPMLNPLIYSLRNKDVAAALRKVLGRCGSSQSIRVATVIRKG [OR2T2] | 130 ± 17 | 
2 | MGMEGLLQNSTNFVLTGLITHPAFPGLLFAVVFSIFVVAITANLVMILLIHMDSRLHTPMYFLLSQLSIMDTIYICITVPKMLQDLLSKDKTISFLGCAVQIFYLTLIGGEFFLLGLMAYDRYVAVCNPLRYPLLMNRRVCLFMVVGSWVGGSLDGFMLTPVTMSFPFCRSREINHFFCEIPAVLKLSCTDTSLYETLMYACCVLMLLIPLSVISVSYTHILLTVHRMNSAEGRRKAFATCSSHIMVVSVFYGAAFYTNVLPHSYHTPEKDKVVSAFYTILTPMLNPLIYSLRNKDVAAALRKVLGRCGSSQSIRVATVIRKG [OR2T35] | 126 ± 14 | 
3 | MGNCLHRAELSPSTENSSQLDFEDVWNSSYGVNDSFPDGDYGANLEAAAPCHSCNLLDDSALPFFILTSVLGILASSTVLFMLFRPLFRWQLCPGWPVLAQLAVGSALFSIVVPVLAPGLGSTRSSALCSLGYCVWYGSAFAQALLLGCHASLGHRLGAGQVPGLTLGLTVGIWGVAALLTLPVTLASGASGGLCTLIYSTELKALQATHTVACLAIFVLLPLGLFGAKGLKKALGMGPGPWMNILWAWFIFWWPHGVVLGLDFLVRSKLLLLSTCLAQQALDLLLNLAEALAILHCVATPLLLALFCHQATRTLLPSLPLPEGWSSHLDTLGSKS [ACKR1] |  | plasma membrane surface immunostaining intensity (GPCR class: A): 5030 ± 340
4 | MGNRSTADADGLLAGRGPAAGASAGASAGLAGQGAAALVGGVLLIGAVLAGNSLVCVSVATERALQTPTNSFIVSLAAADLLLALLVLPLFVYSEVQGGAWLLSPRLCDALMAMDVMLCTASIFNLCAISVDRFVAVAVPLRYNRQGGSRRQLLLIGATWLLSAAVAAPVLCGLNDVRGRDPAVCRLEDRDYVVYSSVCSFFLPCPLMLLLYWATFRGLQRWEVARRAKLHGRAPRRPSGPGPPSPTPPAPRLPQDPCGPDCAPPAPGLPRGPCGPDCAPAAPSLPQDPCGPDCAPPAPGLPPDPCGSNCAPPDAVRAAALPPQTPPQTRRRRRAKITGRERKAMRVLPVVVGAFLLCWTPFFVVHITQALCPACSVPPRLVSAVTWLGYVNSALNPVIYTVFNAEFRNVFRKALRACC [DRD4] |  | plasma membrane surface immunostaining intensity (GPCR class: A): 602 ± 92
5 | MGNWSTVTEITLIAFPALLEIRISLFVVLVVTYTLTATGNITIISLIWIDHRLQTPMYFFLSNLSFLDILYTTVITPKLLACLLGEEKTISFAGCMIQTYFYFFLGTVEFILLAVMSFDRYMAICDPLHYTVIMNSRACLLLVLGCWVGAFLSVLFPTIVVTRLPYCRKEINHFFCDIAPLLQVACINTHLIEKINFLLSALVILSSLAFTTGSYVYIISTILRIPSTQGRQKAFSTCASHITVVSIAHGSNIFVYVRPNQNSSLDYDKVAAVLITVVTPLLNPFIYSLRNEKVQEVLRETVNRIMTLIQRKT [OR6M1] | 127 ± 27 | 
6 | MGNWTAAVTEFVLLGFSLSREVELLLLVLLLPTFLLTLLGNLLIISTVLSCSRLHTPMYFFLCNLSILDILFTSVISPKVLANLGSRDKTISFAGCITQCYFYFFLGTVEFLLLTVMSYDRYATICCPLRYTTIMRPSVCIGTVVFSWVGGFLSVLFPTILISQLPFCGSNIINHFFCDSGPLLALACADTTAIELMDFMLSSMVILCCIVLVAYSYTYIILTIVRIPSASGRKKAFNTCASHLTIVIISSGITVFIYVTPSQKEYLEINKIPLVLSSVVTPFLNPFIYTLRNDTVQGVLRDVWVRVRGVFEKRMRAVLRSRLSSNKDHQGRACSSPPCVYSVKLQC [OR6J1] | 279 ± 110 | 
7 | MGPRAKTISSLFFLLWVLAEPAENSDFYLPGDYLLGGLFSLHANMKGIVHLNFLQVPMCKEYEVKVIGYNLMQAMRFAVEEINNDSSLLPGVLLGYEIVDVCYISNNVQPVLYFLAHEDNLLPIQEDYSNYISRVVAVIGPDNSESVMTVANFLSLFLLPQITYSAISDELRDKVRFPALLRTTPSADHHIEAMVQLMLHFRWNWIIVLVSSDTYGRDNGQLLGERVARRDICIAFQETLPTLQPNQNMTSEERQRLVTIVDKLQQSTARVVVVFSPDLTLYHFFNEVLRQNFTGAVWIASESWAIDPVLHNLTELRHLGTFLGITIQSVPIPGFSEFREWGPQAGPPPLSRTSQSYTCNQECDNCLNATLSFNTILRLSGERVVYSVYSAVYAVAHALHSLLGCDKSTCTKRVVYPWQLLEEIWKVNFTLLDHQIFFDPQGDVALHLEIVQWQWDRSQNPFQSVASYYPLQRQLKNIQDISWHTINNTIPMSMCSKRCQSGQKKKPVGIHVCCFECIDCLPGTFLNHTEDEYECQACPNNEWSYQSETSCFKRQLVFLEWHEAPTIAVALLAALGFLSTLAILVIFWRHFQTPIVRSAGGPMCFLMLTLLLVAYMVVPVYVGPPKVSTCLCRQALFPLCFTICISCIAVRSFQIVCAFKMASRFPRAYSYWVRYQGPYVSMAFITVLKMVIVVIGMLATGLSPTTRTDPDDPKITIVSCNPNYRNSLLFNTSLDLLLSVVGFSFAYMGKELPTNYNEAKFITLSMTFYFTSSVSLCTFMSAYSGVLVTIVDLLVTVLNLLAISLGYFGPKCYMILFYPERNTPAYFNSMIQGYTMRRD [TAS1R2] |  | plasma membrane surface immunostaining intensity (GPCR class: Taste): 229 ± 23
8 | MGRWVNQSYTDGFFLLGIFSHSQTDLVLFSAVMVVFTVALCGNVLLIFLIYLDAGLHTPMYFFLSQLSLMDLMLVCNIVPKMAANFLSGRKSISFVGCGIQIGFFVSLVGSEGLLLGLMAYDRYVAVSHPLHYPILMNQRVCLQITGSSWAFGIIDGVIQMVAAMGLPYCGSRSVDHFFCEVQALLKLACADTSLFDTLLFACCVFMLLLPFSIIMASYACILGAVLRIRSAQAWKKALATCSSHLTAVTLFYGAAMFMYLRPRRYRAPSHDKVASIFYTVLTPMLNPLIYSLRNGEVMGALRKGLDRCRIGSQH [OR2V1] | 153 ± 28 | 
9 | MGSFNTSFEDGFILVGFSDWPQLEPILFVFIFIFYSLTLFGNTIIIALSWLDLRLHTPMYFFLSHLSLLDLCFTTSTVPQLLINLCGVDRTITRGGCVAQLFIYLALGSTECVLLVVMAFDRYAAVCRPLHYMAIMHPHLCQTLAIASWGAGFVNSLIQTGLAMAMPLCGHRLNHFFCEMPVFLKLACADTEGTEAKMFVARVIVVAVPAALILGSYVHIAHAVLRVKSTAGRRKAFGTCGSHLLVVFLFYGSAIYTYLQSIHNYSEREGKFVALFYTIITPILNPLIYTLRNKDVKGALWKVLWRGRDSG [OR2Y1] | 132 ± 17 | 
10 | MGTARIAPGLALLLCCPVLSSAYALVDADDVMTKEEQIFLLHRAQAQCEKRLKEVLQRPASIMESDKGWTSASTSGKPRKDKASGKLYPESEEDKEAPTGSRYRGRPCLPEWDHILCWPLGAPGEVVAVPCPDYIYDFNHKGHAYRRCDRNGSWELVPGHNRTWANYSECVKFLTNETREREVFDRLGMIYTVGYSVSLASLTVAVLILAYFRRLHCTRNYIHMHLFLSFMLRAVSIFVKDAVLYSGATLDEAERLTEEELRAIAQAPPPPATAAAGYAGCRVAVTFFLYFLATNYYWILVEGLYLHSLIFMAFFSEKKYLWGFTVFGWGLPAVFVAVWVSVRATLANTGCWDLSSGNKKWIIQVPILASIVLNFILFINIVRVLATKLRETNAGRCDTRQQYRKLLKSTLVLMPLFGVHYIVFMATPYTEVSGTLWQVQMHYEMLFNSFQGFFVAIIYCFCNGEVQAEIKKSWSRWTLALDFKRKARSGSSSYSYGPMVSHTSVTNVGPRVGLGLPLSPRLLPTATTNGHPQLPGHAKPGTPALETLETTPPAMAAPKDDGFLNGSCSGLDEEASGPERPPALLQEEWETVM [PTH1R] |  | plasma membrane surface immunostaining intensity (GPCR class: B): 770 ± 69
